Measurements as given in the supplement of paper PMC12783771.
± gives the standard deviation of the averaged measurements.

B1: library; a variant is named by its letters at X, in order (parent)
chain: MNIQIGELAKRTACPVVTIRFYEQEGLLPPPGRSRGNFRLYGEEHVERLQFIRHCRSLDMPLSDVRTLLSYRKRPDQDCGEVXMLLDEHIRQVESRIGALLELKHHLVELREACSGARPAQSCGILQXLSXCVCXTRGTTAHXSD

How the values were obtained:
[1] = variants of: B1; assay: sfGFP reporter fluorescence (15 h) (µM FITC); higher = higher leak; details: library round: Round 2; ligand: none
Protocol: (§1)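 Cell-free biosensing: 1 µL Echo-assembled CFE reactions with linear PbrR variant templates (5 nM) and pPbrR-sfGFP reporter, with 1 µM Pb, 30 µM Zn or no ligand; endpoint sfGFP fluorescence after 15 h at 30 °C calibrated as µM FITC. Round 2 ML-predicted PbrR mutants; up to 3 biological replicates.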

[2] = variants of: B1; assay: sfGFP reporter fluorescence (15 h) (µM FITC); higher = stronger transcriptional activation; details: library round: Round 2
Protocol: as §1

| Variant | sfGFP reporter fluorescence [1] | sfGFP reporter fluorescence ([2]; ligand: 1 µM Pb) | sfGFP reporter fluorescence ([2]; ligand: 30 µM Zn) |
| --- | --- | --- | --- |
| MNIQIGELAKRTACPVVTIRFYEQEGLLPPPGRSRGNFRLYGEEHVERLQFIRHCRSLDMPLSDVRTLLSYRKRPDQDCGEVNMLLDEHIRQVESRIGALLELKHHLVELREACSGARPAQSCGILQILSACVCPTRGTTAHPSD [NIAPP] | 0.139 ± 0.0095 | 0.472 ± 0.03 | 2.03 ± 0.16 |
| MNIQIGELAKRTACPVVTIRFYEQEGLLPPPGRSRGNFRLYGEEHVERLQFIRHCRSLDMPLSDVRTLLSYRKRPDQDCGEVNMLLDEHIRQVESRIGALLELKHHLVLLREACSGARPAQSCGLLQHLSDCVCDTRGTTAHLSD [NHDDL E109L I125L] | 0.048 ± 0.0018 | 0.044 ± 0.0027 | 0.047 ± 0.0027 |
| MNIQIGELAKRTACPVVTIRFYEQEGLLPPPGRSRGNFRLYGEEHVERLQFIRHCRSLDLPLSKVRTLLSYRKRPDQDCGEVNMLLDEHIRQVESRIGALLELKHHLVELREACSGARPAQSCGILQILSCCVCDTRGTTAHPSD [NICDP M60L D64K] | 2.32 ± 0.17 | 3.17 ± 0.17 | 3.67 ± 0.38 |
| MNIQIGELAKRTACPVVTIRFYEQEGLLPPPGRSRGNFRLYGEEHVERLQFIRHCRSLDMPLSDVRTLLSYRKRPDQDCGEVTMLLDEHIRQVESRIGALLELKHHLVELREACSGARPAQSCGILQHLSDCVCDTRGTTAHWSD [THDDW] | 0.0458 ± 0.0021 | 0.0682 ± 0.011 | 0.0889 ± 0.0029 |
| MNIQIGELAKRTACPVVTIRFYEQEGLLPPPGRSRGNFRLYGEEHVERLQFIRHCRSLDMPLSDVRTLLSYRKRPDQDCGEVNMLLDEHIRQVESRIGALLELKHHLVELREACSGARPAQSCGILQHLSECVCDTRGTTAHWSD [NHEDW] | 0.0563 ± 0.0014 | 0.119 ± 0.014 | 0.842 ± 0.068 |
| MNIQIGELAKRTACPVVTIRFYEQEGLLPPPGRSRGNFRLYGEEHVERLQFIRHCRSLDMPLSDVRTLLSYRKRPDQDCGEVNMLLDEHIRQVESRIGALLELKHHLVLLREACSGARPAQSCGILQHLSDCVCDTRGTTAHASD [NHDDA E109L] | 0.0459 ± 0.0013 | 0.0809 ± 0.0052 | 0.343 ± 0.014 |
| MNIQIGELAKRTACPVVTIRFYEQEGLLPPPGRSRGNFRLYGEEHVERLQFIRHCRSLDMPLSDVRTLLSYRKRPDQDCGEVNMLLDEHIRQVESRIGALLELKHHLVLLREACSGARPAQSCGILQHLSDCVCDTRGTTAHWSD [NHDDW E109L] | 0.0479 ± 0.00051 | 0.0832 ± 0.0024 | 0.399 ± 0.045 |
| MNIQIGELAKRTACPVVTIRFYEQEGLLPPPGRSRGNFRLYGEEHVERLQFIRHCRSLDMPLSDVRTLLSYRKRPDQDCGEVNMLLDEHIRQVESRIGALLELKHHLVELREACSGARPAQSCGILQHLSDCVCATRGTTAHWSD [NHDAW] | 0.0656 ± 0.0096 | 0.117 ± 0.0091 | 0.55 ± 0.081 |
| MNIQIGELAKRTACPVVTIRFYEQEGLLPPPGRSRGNFRLYGEEHVERLQFIRHCRSLDMPLSDVRTLLSYRKRPDQDCGEVNMLLDEHIRQVESRIGALLELRHHLVELREACSGARPAQSCGILQILSCCVCDTRGTTAHPSD [NICDP K104R] | 0.0714 ± 0.0069 | 0.134 ± 0.0046 | 0.244 ± 0.034 |
| MNIQIGELAKRTACPVVTIRFYEQEGLLPPPGRSRGNFRLYGEEHVERLQFIRHCRSLDMPLSDVRTLLSYRKRPDQDCGEVNMLLDEHIRQVESRIGALLELKHHLVELREACSGARPAQSCGLLQILSCCVCDTRGTTAHPSD [NICDP I125L] | 0.0468 ± 0.0013 | 0.0446 ± 0.0014 | 0.0531 ± 0.0013 |
| MNIQIGELAKRTACPVVTIRFYEQEGLLPPPGRSRGNFRLYGEEHVERLQFIRHCRSLDMPLSDVRTLLSYRKRPDQDCGEVNMLLDEHIRQVESRIGALLELKHHLVELREACSGARPAQSCGVLQHLSCCVCDTRGTTAHPSD [NHCDP I125V] | 0.0459 ± 0.0044 | 0.0526 ± 0.0016 | 0.0631 ± 0.0035 |
| MNIQIGELAKRTACPVVTIRFYEQEGLLPPPGRSRGNFRLYGEEHVERLQFIRHCRSLDMPLSDVRTLLSYRKRPDQDCGEVNMLLDEHIRQVESRIGALLELKHHCVELREACSGARPAQSCGILQILSACVCDTRGTTAHPSD [NIADP L107C] | 2.06 ± 0.19 | 3.57 ± 0.56 | 3.67 ± 0.32 |
| MNIQIGELAKRTACPVVTIRFYEQEGLLPPPGRSRGNFRLYGEEHVERLQFIRHCRSLDMPLSDVRTLLSYRKRPDQDCGEVNMLLDEHIRQVESRIGALLELKHHLVLLREACSGARPAQSCGILQHLSCCVCDTRGTTAHLSD [NHCDL E109L] | 0.0622 ± 0.0037 | 0.0798 ± 0.0072 | 0.512 ± 0.062 |
| MNIQIGELAKRTACPVVTIRFYEQEGLLPPPGRSRGNFRLYGEEHVERLQFIRHCRSLDMPLSDVRTLLSYRKRPDQDCGEVNMLLDEHIRQVESRIGALLELKHHLLELREACSGARPAQSCGILQHLSDCVCDTRGTTAHASD [NHDDA V108L] | 0.0477 ± 0.0017 | 0.0671 ± 0.0043 | 0.271 ± 0.03 |
